Measurements taken from paper PMC5882232.

Target: TRPA1b-FLAG (mouse TRPA1b, splice variant of TRPA1 lacking exon 20, tagged with FLAG) (mouse)
Assay: native gel or EMSA

## TRPA1b-FLAG (mouse TRPA1b, splice variant of TRPA1 lacking exon 20, tagged with FLAG) (natural protein)
  stoichiometry N: 4
